Experimental data reported in the supplement of paper PMC12764529.
± gives the half width of the 95% confidence interval.

What was measured:
[1] = folding stability dG unfold from chymotrypsin proteolysis; higher = more stable
How it was run: (§1)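 Only designs with AlphaFold2 dimer inter-PAE above 15 were retained; each was a mini-protein under 80 residues with no cysteine, in a PA-tagged cDNA display construct. After digestion with trypsin and chymotrypsin and sequencing, K50 was inferred by Bayesian fitting of counts, and unfolding free energy was derived per protease or combined against a sequence-predicted unfolded-state K50 and a shared folded-state K50.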

[2] = folding stability dG unfold from trypsin proteolysis; higher = more stable
How it was run: as §1

[3] = folding stability dG unfold (combined trypsin and chymotrypsin); higher = more stable
How it was run: as §1

Sequence	folding stability dG unfold [1] [kcal/mol]	folding stability dG unfold [2] [kcal/mol]	folding stability dG unfold [3] [kcal/mol]
SAKDIEIEMERTNGYYQMTIKLPGKGYEISVWMPGDQYEISVQPPKNPDEVETIPFTVPEIKDALIDALSAG [r14_716_TrROS]	1.26 ± 0.16	0.519 ± 0.12	1.18 ± 0.3
SAKEEEKKKKKEKKKPKPKTVEITVYINGKKIKKIKFNKKTKKITITLENGKKITIPPGMSLEEILKKLSAG [r14_59_TrROS_Hall]	3.37 ± 0.1	2.16 ± 0.16	2.88 ± 0.24
SAKIKVEIVEIDEKTGTIKIKAEIELPDGTKIELEATIKIEPVEVEKKEVTDKNGKKITVTKIKIKLPEKSA [r9_610_TrROS_Hall]	2.52 ± 0.24	2.05 ± 0.5	2.59 ± 0.71
SAKITKIEINEDGTLTITIEVELPEGMEADELVIFVEVDGKIYEATIKKDGTVEIKLKNIKDLKIYIFKKSA [r9_722_TrROS_Hall]	5.04 ± 0.12	3.87 ± 0.28	4.95 ± 0.16
SAKKKKPLPKIKKIKITITLKDGTKIEMEITKVEVLEDGTVKIKMKMKVIDKKTKKKYEFEIEIIIKLKSAG [r14_591_TrROS_Hall]	3.28 ± 0.17	2.96 ± 0.27	3.27 ± 0.21
SAKKKVVELEIEIEVPPEDLTEEELKEKVLEALRKLFPDLKIKKIEIEVRVERKEDGSLKVTVKIKIEPSAG [r14_145_TrROS_Hall]	2.01 ± 0.14	3.03 ± 0.13	2.65 ± 0.28
SAKKKVVVEIEIPKEDMSKEEVKEALREAAKELGLELPEEEIEKLVEEARKKGLSIEEVLRKLKEEGLLSAG [r14_364_TrROS_Hall]	1.47 ± 0.054	0.693 ± 0.056	1.12 ± 0.12
SAKKLDIKVDGIQRPENNVMILIRIDPGLPPEKDVTITIKGKNGHKQEIPYENDHIYIMVPAQDITIKISAG [r14_350_TrROS]	2.68 ± 0.045	1.8 ± 0.077	2.25 ± 0.34
SAKKVKPIAKLTITDENGNTYEITVTVKEVDGKLVVEAEVYNKDGELVARVTAVFDNGKLVAVSIELLPSAG [r14_828_TrROS_Hall]	3.03 ± 0.072	2.11 ± 0.13	2.8 ± 0.17
SAKMKLPEGAKPIAEKDGITIVEVPNKVIIRVRLPDGKEVTLTFPKSDLEEIEALIRELKDAGIEEIEFSAG [r14_12_TrROS_Hall]	0.762 ± 0.12	0.876 ± 0.024	0.815 ± 0.07
SAKMTAEELAKKLAEELAKKLGVKVKVEVEVKVEEKDGKLVIEVKIKVYNENGELIEEIKIEIVLPKEESAG [r14_708_TrROS_Hall]	3.84 ± 0.26	2.92 ± 0.35	3.51 ± 0.28
SAKPKVIAEITIYNKETGKVVRITLTDEALEEAKKKGLKEVKLTVEIEVVNPDGSKKTFKMEITLKVEDSAG [r14_100_TrROS_Hall]	4.08 ± 0.17	2.77 ± 0.26	3.96 ± 0.26
SAKPPVIVIRIEKKEDGTYRVTIEVDGKEIEIEVPEGTSLEEILKKLAEELGVEVEVVEVKDGYLVIKPSAG [r14_404_TrROS_Hall]	2.88 ± 0.092	2.82 ± 0.2	2.84 ± 0.26
SAKTIPINIWGPLGDMDRMAEEIARMIARKLGLPANLKKIKIKFTEIEPWPDPDGKPRWVRMSIEIKVKSAG [r14_736_TrROS]	3.61 ± 0.095	3.55 ± 0.06	3.45 ± 0.19
SAKVKISIEFDKKTNKVTIKVKYKGDKEKEKEITLSLEELQKKLGKPLSLEEIIKLLKEKGIDEVEIYPSAG [r14_809_TrROS_Hall]	4.26 ± 0.093	3.44 ± 0.14	4.06 ± 0.15
SALDAKEIAEEFMKKFPPNFRDITVDVENTGNKRKIKIMFRMPNRYWTQEFDLDDGKIEIEPINPGQPLSAG [r14_737_TrROS]	0.368 ± 0.15	0.862 ± 0.091	0.672 ± 0.066
SALEANIKKAEELAKPEEKVPEFPVKVGDLYIKSVRFFPSTKKVVLFLPNGEKIEADPNVTLEEILKAISAG [r14_59_TrMRF]	0.254 ± 0.13	0.759 ± 0.075	0.51 ± 0.15
SALGEEEVLRALKAAAAPLPKVEPVLRKVTVLVPETGEPFEVEVLAYRLENGEIFPVPAEATEALAEALASA [r9_1056_TrMRF]	-0.1 ± 0.41	-0.549 ± 0.36	-0.274 ± 0.19
SALLENGGIFISINLEWDPEYNWIRIKRFTIYWNGKVIATQPQWIPVPPPPPPPPPEREYNPNDPDNNKSAG [r14_571_TrROS]	5.06 ± 0.085	3.19 ± 0.19	4.56 ± 0.16
SALPALLEAAEAGESGTFIPIVADPEAAAVLRAVLERLGFTLVSEEPVPAGARPVFVGVYYFDPVSGRNRSA [r9_498_TrMRF]	2.38 ± 0.17	1.1 ± 0.047	1.84 ± 0.091
